In this test the target is recombinant E protein domain III of DENV-2, flag and hexahistidine tagged (Dengue virus type 2, strain 16681 …, UniProt P29990). Description: SPR. To be noted: both partners purified.

B1: humanized DB32-6 monoclonal antibody (antibody, V domains shown)
VH: EVQLQQSGAELVKPGASVNLSCTASGFNIKDTYIHWVKQRPEQGLEWIGRIDPENGNAKYDPNFQAKATIAADTSSNTAYLQLSSLTSEDTAVYYCVRTGSFWYFDVWGQGTLVTVSS
VL: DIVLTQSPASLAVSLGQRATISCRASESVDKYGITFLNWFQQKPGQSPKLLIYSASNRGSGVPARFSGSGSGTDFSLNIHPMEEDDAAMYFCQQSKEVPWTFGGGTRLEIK
Take B1: the Kd – broadly, the free concentration of one partner at which half of the binding sites on the other are occupied at equilibrium, for simple one-to-one binding – was determined as 0.18 nM.

Values taken from PMC3341331 (PLoS Neglected Tropical Diseases, 2012).
